# Reference: patent EP3366704A1 (Affimed GmbH, dated 2018)
# Columns and labels:
# [1] = molecular target: T1, MMP1-003 peptide/HLA-A2 complex (on MMP1-003 peptide-pulsed T2 cells or HLA-A2+/MMP1+ tumor cells) (human); test: cell-based or functional assay
# [2] = molecular target: T1, MMP1-003 peptide/HLA-A2 complex (on …); test: cell-based or functional assay; remark: listed apart in the source
# [3] = molecular target: T2, CD16A (FcgammaRIIIA) on primary human NK-cells (human, UniProt P08637 17-254); test: flow cytometry on primary human NK-cells, on ice, one-site binding fit, mean of two experiments
# T2 construct: whole, on cells; also called CD16^+ NK-cells; CD16A^+ cells
# [4] = molecular target: T1, MMP1-003 peptide/HLA-A2 complex (on …); test: flow cytometry on MMP1-003 peptide-pulsed T2 cells, mean of two experiments
# [5] = molecular target: T3, human CD3 (on Jurkat cells or primary human T-cells) (human, UniProt P07766 23-207); test: flow cytometry on human CD3+ Jurkat cells, on ice
# T3 construct: whole, on cells; CD3 is a complex of several chains; also called Human CD3^+ Jurkat; Human CD3^+ primary T-cells
# [6] = molecular target: T4, cynomolgus CD3 (on HSC-F cells) (cynomolgus, UniProt Q95LI5 22-198); test: flow cytometry on cynomolgus CD3+ HSC-F cells, on ice
# T4 construct: whole, on cells; CD3 is a complex of several chains; also called Cyno CD3^+ HSC-F
# [7] = molecular target: T1, MMP1-003 peptide/HLA-A2 complex (on …); test: cell-based or functional assay; remark: listed apart in the source
# [8] = molecular target: T3, human CD3 (on Jurkat cells or primary …); test: flow cytometry on human CD3+ primary T-cells, on ice, one-site binding fit, mean of 2 experiments
# [9] = molecular target: T1, MMP1-003 peptide/HLA-A2 complex (on …); test: cell-based or functional assay; remark: listed apart in the source
# [10] = molecular target: T4, cynomolgus CD3 (on HSC-F cells); test: flow cytometry on cynomolgus CD3+ HSC-F cells, on ice, one-site binding fit, mean of 2 experiments
# [11] = molecular target: T5, HLA-A2 on non-pulsed T2 cells (no peptide added) (human); test: flow cytometry on non-pulsed T2 cells, mean of two experiments
# T5 construct: whole, on cells
# [12] = molecular target: T3, human CD3 (on Jurkat cells or primary …); test: flow cytometry on human CD3+ Jurkat cells, on ice, one-site binding fit, mean of 2 experiments
# [13] = molecular target: T1, MMP1-003 peptide/HLA-A2 complex (on …); test: flow cytometry on MMP1-003 peptide-pulsed T2 cells
# T2 sequence (P08637 17-254): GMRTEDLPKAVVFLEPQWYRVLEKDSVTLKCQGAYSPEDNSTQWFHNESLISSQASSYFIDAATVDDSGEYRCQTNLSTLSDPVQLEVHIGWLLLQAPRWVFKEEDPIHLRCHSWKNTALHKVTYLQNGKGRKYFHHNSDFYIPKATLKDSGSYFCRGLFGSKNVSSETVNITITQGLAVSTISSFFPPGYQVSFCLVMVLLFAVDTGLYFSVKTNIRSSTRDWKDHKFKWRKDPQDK
# T3 sequence (P07766 23-207): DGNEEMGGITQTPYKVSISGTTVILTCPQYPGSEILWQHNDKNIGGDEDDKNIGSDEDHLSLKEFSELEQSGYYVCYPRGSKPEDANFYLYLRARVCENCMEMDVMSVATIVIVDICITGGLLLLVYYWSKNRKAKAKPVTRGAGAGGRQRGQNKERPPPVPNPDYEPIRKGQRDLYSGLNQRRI
# T4 sequence (Q95LI5 22-198): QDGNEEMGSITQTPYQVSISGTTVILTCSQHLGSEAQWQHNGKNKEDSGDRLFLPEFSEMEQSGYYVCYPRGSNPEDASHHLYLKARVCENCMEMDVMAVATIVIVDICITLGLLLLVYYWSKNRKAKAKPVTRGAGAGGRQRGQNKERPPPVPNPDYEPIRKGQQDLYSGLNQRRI
Binder,"Mean EC50 of target cell lysis, 4 h calcein-release assay, B-CPAP (HLA-A2+/MMP1+), human NK-cells E:T 5:1 [1]","Mean EC50 of target cell lysis, 4 h calcein-release assay, SW-982 (HLA-A2+/MMP1+), human NK-cells E:T 5:1 [1]","Mean EC50 of target cell lysis, 4 h calcein-release assay, MMP1-003-pulsed T2 cells, human NK-cells E:T 5:1 [2]",Kd [3],Kd [4],further results
"TandAbCD16A 4 (anti-HLA-A2^MMP1-003/CD16A tandem diabody, target domain B05, variant 4) (bispecific antibody, Non-covalent homodimer; C-terminal 6xHis tag) QVQLVQSGAEAKKPGESLRISCRASGYMFSTFWIGWVRQMPGKGLEWVASIYPGDSNTIYSPSFQGQVTISADKSINTTYLQWSGLKASDTATYYCAKIRDGYSYDAFDLWGQGTMVTVSSGGSGGSGGSSYVLTQPSSVSVAPGQTATISCGGHNIGSKNVHWYQQRPGQSPVLVIYQDNKRPSGIPERFSGSNSGNTATLTISGTQAMDEADYYCQVWDNYSVLFGGGTKLTVLGGSGGSQVQLVQSGAEVKKPGESLKVSCKASGYTFTSYYMHWVRQAPGQGLEWMGAIEPMYGSTSYAQKFQGRVTMTRDTSTSTVYMELSSLRSEDTAVYYCARGSAYYYDFADYWGQGTLVTVSSGGSGGSGGSQSALTQPASVSGSPGQSITISCTGTSSDVGGYNYVSWYQQHPGKAPKLMIYDVSNRPSGVSNRFSGSKSGNTASLTISGLQAEDEADYYCSSYTSSSTLAYVFGTGTKLTVLAAAGSHHHHHH",4.8 nM,4.67 nM,0.0088 nM,5.3 nM,–,–
"TandAbCD16A 2 (anti-HLA-A2^MMP1-003/CD16A tandem diabody, target domain B05, variant 2) (bispecific antibody, Non-covalent homodimer; C-terminal 6xHis tag) QVQLVQSGAEVKKPGESLKVSCKASGYTFTSYYMHWVRQAPGQGLEWMGAIEPMYGSTSYAQKFQGRVTMTRDTSTSTVYMELSSLRSEDTAVYYCARGSAYYYDFADYWGQGTLVTVSSGGSGGSGGSQSALTQPASVSGSPGQSITISCTGTSSDVGGYNYVSWYQQHPGKAPKLMIYDVSNRPSGVSNRFSGSKSGNTASLTISGLQAEDEADYYCSSYTSSSTLAYVFGTGTKLTVLGGSGGSQVQLVQSGAEAKKPGESLRISCRASGYMFSTFWIGWVRQMPGKGLEWVASIYPGDSNTIYSPSFQGQVTISADKSINTTYLQWSGLKASDTATYYCAKIRDGYSYDAFDLWGQGTMVTVSSGGSGGSGGSSYVLTQPSSVSVAPGQTATISCGGHNIGSKNVHWYQQRPGQSPVLVIYQDNKRPSGIPERFSGSNSGNTATLTISGTQAMDEADYYCQVWDNYSVLFGGGTKLTVLAAAGSHHHHHH",1.69 nM,2.86 nM,0.0209 nM,3.7 nM,–,–
"scFv B05 (anti-HLA-A2^MMP1-003 single chain Fv) (scFv, also called B05 scFv; scFv_202.S) scFv: QVQLVQSGAEAKKPGESLRISCRASGYMFSTFWIGWVRQMPGKGLEWVASIYPGDSNTIYSPSFQGQVTISADKSINTTYLQWSGLKASDTATYYCAKIRDGYSYDAFDLWGQGTMVTVSSGGSGGSGGSGGSGGSGGSQSALTQPASVSGSPGQSITISCTGTSSDVGGYNYVSWYQQHPGKAPKLMIYDVSNRPSGVSNRFSGSKSGNTASLTISGLQAEDEADYYCSSYTSSSTLAYVFGTGTKLTVLAAAGSEQKLISEEDLNSHHHHHH",–,–,–,–,616 nM,binding result [5]: no binding; binding result [6]: no binding
"scFv A02 (anti-HLA-A2^MMP1-003 single chain Fv) (scFv, also called A02 scFv; scFv_203.S) scFv: EVQLVESGGGVVQPGRSLRLSCAASGFTFSSYAMHWVRQAPGKGLEWVAVISYDGSNKYYADSVKGRFTISRDNSKNTLYLQMNSLRTEDTAVYYCARDGGYYHYGLDVWGQGTTVTVSSGGSGGSGGSGGSGGSGGSSYELTQPPSVSVSPGQTASITCSGDKLGDKYASWYQRKPGQSPVLLIYQDAKRPSGIPERFSGSNSGNTATLTISGTQAMDEADYYCQAWDSSTGVFGGGTKLTVLAAAGSEQKLISEEDLNSHHHHHH",–,–,–,–,108 nM,binding result [5]: no binding; binding result [6]: no binding
"TandAbCD3 2 (anti-HLA-A2^MMP1-003/CD3 tandem diabody, target domain A02) (bispecific antibody, Non-covalent homodimer; C-terminal 6xHis tag; also called TandAbCD3 2 T717; T717) DIQMTQSPSSLSASVGDRVTITCRSSTGAVTTSNYANWVQQKPGKAPKALIGGTNKRAPGVPSRFSGSLIGDKATLTISSLQPEDFATYYCALWYSNLWVFGQGTKVEIKGGSGGSEVQLVESGGGVVQPGRSLRLSCAASGFTFSSYAMHWVRQAPGKGLEWVAVISYDGSNKYYADSVKGRFTISRDNSKNTLYLQMNSLRTEDTAVYYCARDGGYYHYGLDVWGQGTTVTVSSGGSGSYELTQPPSVSVSPGQTASITCSGDKLGDKYASWYQRKPGQSPVLLIYQDAKRPSGIPERFSGSNSGNTATLTISGTQAMDEADYYCQAWDSSTGVFGGGTKLTVLGGSGGSEVQLVESGGGLVQPGGSLRLSCAASGFTFSTYAMNWVRQAPGKGLEWVGRIRSKYNNYATYYADSVKDRFTISRDDSKNSLYLQMNSLKTEDTAVYYCARHGNFGNSYVSYFAYWGQGTLVTVSSAAAGSHHHHHH",–,–,–,–,39.2 nM,"EC50 of target cell lysis, 4 h calcein-release cytotoxicity assay, MMP1-003-pulsed T2 cells, human T-cells E:T 25:1 [7]: 0.0009 nM; Kd [8]: 2.2 nM; Mean EC50 of target cell lysis, 4 h calcein-release assay, B-CPAP (HLA-A2+/MMP1+), human T-cells E:T 25:1 [9]: 0.0669 nM; Mean EC50 of target cell lysis, 4 h calcein-release assay, SW-982 (HLA-A2+/MMP1+), human T-cells E:T 25:1 [9]: 0.0302 nM; Kd [10]: 2.8 nM; Kd [11]: > 500 nM; Kd [12]: 3.6 nM; fold higher apparent affinity than the corresponding scFv A02 [13]: > 2 fold"
"TandAbCD16A 3 (anti-HLA-A2^MMP1-003/CD16A tandem diabody, target domain A02, variant 4) (bispecific antibody, Non-covalent homodimer; Variant 4: VH(A02)-L1-VL(CD16A)-L2-VH(CD16A)-L3-VL(A02); C-terminal 6xHis tag) EVQLVESGGGVVQPGRSLRLSCAASGFTFSSYAMHWVRQAPGKGLEWVAVISYDGSNKYYADSVKGRFTISRDNSKNTLYLQMNSLRTEDTAVYYCARDGGYYHYGLDVWGQGTTVTVSSGGSGGSGGSSYVLTQPSSVSVAPGQTATISCGGHNIGSKNVHWYQQRPGQSPVLVIYQDNKRPSGIPERFSGSNSGNTATLTISGTQAMDEADYYCQVWDNYSVLFGGGTKLTVLGGSGGSQVQLVQSGAEVKKPGESLKVSCKASGYTFTSYYMHWVRQAPGQGLEWMGAIEPMYGSTSYAQKFQGRVTMTRDTSTSTVYMELSSLRSEDTAVYYCARGSAYYYDFADYWGQGTLVTVSSGGSGGSGGSSYELTQPPSVSVSPGQTASITCSGDKLGDKYASWYQRKPGQSPVLLIYQDAKRPSGIPERFSGSNSGNTATLTISGTQAMDEADYYCQAWDSSTGVFGGGTKLTVLAAAGSHHHHHH",0.996 nM,1.16 nM,0.0057 nM,3.1 nM,–,–
"TandAbCD3 1 (anti-HLA-A2^MMP1-003/CD3 tandem diabody, target domain B05) (bispecific antibody, Non-covalent homodimer of two identical polypeptides; Constructs carry a C-terminal 6xHis tag and an N-terminal signal peptide; also called TandAbCD3 1 T714; TandAb 1) DIQMTQSPSSLSASVGDRVTITCRSSTGAVTTSNYANWVQQKPGKAPKALIGGTNKRAPGVPSRFSGSLIGDKATLTISSLQPEDFATYYCALWYSNLWVFGQGTKVEIKGGSGGSQVQLVQSGAEAKKPGESLRISCRASGYMFSTFWIGWVRQMPGKGLEWVASIYPGDSNTIYSPSFQGQVTISADKSINTTYLQWSGLKASDTATYYCAKIRDGYSYDAFDLWGQGTMVTVSSGGSGQSALTQPASVSGSPGQSITISCTGTSSDVGGYNYVSWYQQHPGKAPKLMIYDVSNRPSGVSNRFSGSKSGNTASLTISGLQAEDEADYYCSSYTSSSTLAYVFGTGTKLTVLGGSGGSEVQLVESGGGLVQPGGSLRLSCAASGFTFSTYAMNWVRQAPGKGLEWVGRIRSKYNNYATYYADSVKDRFTISRDDSKNSLYLQMNSLKTEDTAVYYCARHGNFGNSYVSYFAYWGQGTLVTVSSAAAGSHHHHHH",–,–,–,–,3 nM,"EC50 of target cell lysis, 4 h calcein-release cytotoxicity assay, MMP1-003-pulsed T2 cells, human T-cells E:T 25:1 [7]: 0.0007 nM; Kd [8]: 1.7 nM; Mean EC50 of target cell lysis, 4 h calcein-release assay, B-CPAP (HLA-A2+/MMP1+), human T-cells E:T 25:1 [9]: 0.237 nM; Mean EC50 of target cell lysis, 4 h calcein-release assay, SW-982 (HLA-A2+/MMP1+), human T-cells E:T 25:1 [9]: 0.156 nM; Kd [10]: 1.3 nM; Kd [12]: 1.1 nM; fold higher apparent affinity relative to the B05 single chain Fv (scFv) [13]: > 200 fold"
"TandAbCD16A 1 (anti-HLA-A2^MMP1-003/CD16A tandem diabody, target domain A02, variant 2) (bispecific antibody, Non-covalent homodimer; Variant 2: VH(CD16A)-L1-VL(A02)-L2-VH(A02)-L3-VL(CD16A); C-terminal 6xHis tag) QVQLVQSGAEVKKPGESLKVSCKASGYTFTSYYMHWVRQAPGQGLEWMGAIEPMYGSTSYAQKFQGRVTMTRDTSTSTVYMELSSLRSEDTAVYYCARGSAYYYDFADYWGQGTLVTVSSGGSGGSGGSSYELTQPPSVSVSPGQTASITCSGDKLGDKYASWYQRKPGQSPVLLIYQDAKRPSGIPERFSGSNSGNTATLTISGTQAMDEADYYCQAWDSSTGVFGGGTKLTVLGGSGGSEVQLVESGGGVVQPGRSLRLSCAASGFTFSSYAMHWVRQAPGKGLEWVAVISYDGSNKYYADSVKGRFTISRDNSKNTLYLQMNSLRTEDTAVYYCARDGGYYHYGLDVWGQGTTVTVSSGGSGGSGGSSYVLTQPSSVSVAPGQTATISCGGHNIGSKNVHWYQQRPGQSPVLVIYQDNKRPSGIPERFSGSNSGNTATLTISGTQAMDEADYYCQVWDNYSVLFGGGTKLTVLAAAGSHHHHHH",2.61 nM,4.29 nM,0.0147 nM,5.1 nM,–,–
